This note sets out measurements from patent US20240239899A1 (Memorial Sloan Kettering, published 2024).

Assay [1] deals with T1, HLA-A2 molecule on T2 cells (T2 cells alone, not pulsed) (human).
T1 construct: Stands both for the target 'T2 cells alone' and for the partner of the pulsed peptides in the T2 stabilization assays; also called HLA-A02
The assay is described as follows: flow cytometry, titration of 6B1 on unpulsed T2 cells (FIG. 1C). In general terms: Flow cytometry measures light scatter and fluorescence of single cells or particles in a stream.

Assay [2] deals with b-catenin phosphopeptide/HLA-A2 complex on T2 cells (human, phosphoserine at position 4). As to the kind of experiment: flow cytometry, T2 cells pulsed with 20 µg/ml peptide (FIG. 11).
The target in assay [3] is CCCK phosphopeptide/HLA-A2 complex on T2 cells (human, phosphoserine at position 7). The description is as above.
Assay [4] concerns the target T1, HLA-A2 molecule on T2 cells (T2 cells …). As to the kind of experiment: flow cytometry, unpulsed T2 cells, secondary anti-His-tag mAb.

B1: 6B1 mAb (TCR mimic, full length human IgG1) (antibody, V domains shown)
VH: EVQLLESGGGLVQPGGSLRLSCAASGFTFSSYAMSWVRQAPGKGLEWVSEISGGGGYTDYADSVKGRFTISRDNSKNTLYLQMNSLRAEDTAVYYCARQMYYYYGMDVWGQVTTVTVSS
VL: EIVLTQSPGTLSLSPGERATLSCRASQSVSANYLAWYQQKPGQAPRLLIYGASSRATGIPDRFSGSGSGTDFTLTISRLEPEDFAVYYCQQSYQRPLTFGQGTKVEIK
notes: Full length human IgG1; Conjugated to APC for direct staining of tumor cell lines; also called mAb 6B1; Mab 6B1
As for B1, the binding result is reported as “no binding (tested: 10 µg/ml to 0.1 µg/ml)” in assay [1], “no binding” in assay [2] and “no binding” in assay [3].

B2: 6B1 BisAb h2+2 (L2K scFv inserted into the upper hinge of 6B1 IgG1) (bispecific antibody)
heavy: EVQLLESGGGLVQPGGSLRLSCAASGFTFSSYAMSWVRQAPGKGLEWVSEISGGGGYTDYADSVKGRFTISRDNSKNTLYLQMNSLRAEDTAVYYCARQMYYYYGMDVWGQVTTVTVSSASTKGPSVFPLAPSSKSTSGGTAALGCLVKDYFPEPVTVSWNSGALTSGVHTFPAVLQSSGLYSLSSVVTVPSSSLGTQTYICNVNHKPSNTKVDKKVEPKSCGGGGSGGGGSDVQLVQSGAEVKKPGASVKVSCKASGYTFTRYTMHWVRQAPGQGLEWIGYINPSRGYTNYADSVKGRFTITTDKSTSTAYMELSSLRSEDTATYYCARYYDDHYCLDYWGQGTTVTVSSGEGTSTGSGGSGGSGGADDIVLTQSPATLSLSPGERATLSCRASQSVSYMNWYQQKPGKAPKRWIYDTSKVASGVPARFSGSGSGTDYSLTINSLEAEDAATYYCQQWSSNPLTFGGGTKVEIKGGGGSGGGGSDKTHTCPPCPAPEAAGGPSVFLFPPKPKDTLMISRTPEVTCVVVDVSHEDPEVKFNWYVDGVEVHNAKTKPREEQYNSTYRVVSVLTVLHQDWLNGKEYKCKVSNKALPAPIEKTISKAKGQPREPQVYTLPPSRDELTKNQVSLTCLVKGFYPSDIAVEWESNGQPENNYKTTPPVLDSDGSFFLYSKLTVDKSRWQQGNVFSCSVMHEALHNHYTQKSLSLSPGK
light: EIVLTQSPGTLSLSPGERATLSCRASQSVSANYLAWYQQKPGQAPRLLIYGASSRATGIPDRFSGSGSGTDFTLTISRLEPEDFAVYYCQQSYQRPLTFGQGTKVEIKRTVAAPSVFIFPPSDEQLKSGTASVVCLLNNFYPREAKVQWKVDNALQSGNSQESVTEQDSKDSTYSLSSTLTLSKADYEKHKVYACEVTHQGLSSPVTKSFNRGEC
Regarding B2, in assay [4], the binding result is listed as “no binding (tested: 1 or 0.1 µg/ml)”.

B3: 6B1 BisAb C2+2 (L2K scFv fused to the C-terminus of the 6B1 IgG1 heavy chain) (bispecific antibody)
heavy: not shown
light: EIVLTQSPGTLSLSPGERATLSCRASQSVSANYLAWYQQKPGQAPRLLIYGASSRATGIPDRFSGSGSGTDFTLTISRLEPEDFAVYYCQQSYQRPLTFGQGTKVEIKRTVAAPSVFIFPPSDEQLKSGTASVVCLLNNFYPREAKVQWKVDNALQSGNSQESVTEQDSKDSTYSLSSTLTLSKADYEKHKVYACEVTHQGLSSPVTKSFNRGEC
notes: copies: 2 + 2
Consider B3, for which the binding result in assay [4] is “no binding (tested: 1 or 0.1 µg/ml)”.
